Assay results from patent US8969060B2, “Modified glucose dehydrogenase” (Ikeda Food Research Co., Ltd., priority 2011, dated 2015).
Substitutions are numbered along the chain they refer to. Names and notes keep the numbering of the source. Values joined by “and” are separate entries in the source; they are usually repeats but may differ in a detail not shown here. Identical values can stand only once.

B1: H341D: modified GLD: SEQ ID NO: 1 with substitution H341D (protein, listed as Aspergillus terreus)
chain: MLGKLSFLSALSLAVAAPLSNSTSAKYDYIVIGGGTSGLAVANRLSEDPNVNVLILEAGGSVWNNPNVTNVDGYGLAFGSDIDWQYQSVNQPYGGNLSQVLRAGKALGGTSTINGMAYTRAEDVQIDAWETIGNTGWTWKNLFPYYRKSENFTVPTKSQTSLGASYEAGAHGHEGPLDVAFTQIESNNLTTYLNRTFQGMGLPWTEDVNGGKMRGFNLYPSTVNLEEYVREDAARAYYWPYKSRPNLHVLLNTFANRIVWDGEAHDGHITASGVEITSRNGTVRVINAEKEVIVSAGALKSPAILELSGIGNPSVLDKHNIPVKVNLPTVGENLQDQVNSDMDASGNTSISGTKAVSYPDVYDVFGDEAESVAKQIRANLKQYAADTAKANGNIMKAADLERLFEVQYDLIFKGRVPIAEVLNYPGSATSVFAEFWALLPFARGSVHIGSSNPAEFPVINPNYFMLDWDAKSYVAVAKYIRRSFESYPLSSIVKESTPGYDVIPRNASEQSWKEWVFDKNYRSNFHPVGTAAMMPREIGGVVDERLNVYGTTNVRVVDASVLPFQVCGHLVSTLYAVAERAADLIKADAGRR
modifications: SIGNAL (1)..(19)
B2: H341A: modified GLD: SEQ ID NO: 1 with substitution H341A (protein, listed as Aspergillus terreus)
chain: B1 chain with D341A
modifications: SIGNAL (1)..(19)
B3: H341L: modified GLD: SEQ ID NO: 1 with substitution H341L (protein, listed as Aspergillus terreus)
chain: B1 chain with D341L
modifications: SIGNAL (1)..(19)
B4: S340N: modified GLD: SEQ ID NO: 1 with substitution S340N (protein, listed as Aspergillus terreus)
chain: B1 chain with S340N, D341H
modifications: SIGNAL (1)..(19)
B5: G352E: modified GLD: SEQ ID NO: 1 with substitution G352E (protein, listed as Aspergillus terreus)
chain: B1 chain with D341H, G352E
modifications: SIGNAL (1)..(19)
B6: H341E: modified GLD: SEQ ID NO: 1 with substitution H341E (protein, listed as Aspergillus terreus)
chain: B1 chain with D341E
modifications: SIGNAL (1)..(19)
B7: S340W: modified GLD: SEQ ID NO: 1 with substitution S340W (protein, listed as Aspergillus terreus)
chain: B1 chain with S340W, D341H
modifications: SIGNAL (1)..(19)
B8: H341F: modified GLD: SEQ ID NO: 1 with substitution H341F (protein, listed as Aspergillus terreus)
chain: B1 chain with D341F
modifications: SIGNAL (1)..(19)
B9: H341C: modified GLD: SEQ ID NO: 1 with substitution H341C (protein, listed as Aspergillus terreus)
chain: B1 chain with D341C
modifications: SIGNAL (1)..(19)
B10: S340V: modified GLD: SEQ ID NO: 1 with substitution S340V (protein, listed as Aspergillus terreus)
chain: B1 chain with S340V, D341H
modifications: SIGNAL (1)..(19)
B11: S340G: modified GLD: SEQ ID NO: 1 with substitution S340G (protein, listed as Aspergillus terreus)
chain: B1 chain with S340G, D341H
modifications: SIGNAL (1)..(19)
B12: N287D + D343E + K494E: modified GLD: SEQ ID NO: 1 with substitutions N287D, D343E, K494E (protein, listed as Aspergillus terreus)
chain: B1 chain with N287D, D341H, D343E, K494E
modifications: SIGNAL (1)..(19)
B13: D343N + S490C: modified GLD: SEQ ID NO: 1 with substitutions D343N, S490C (protein, listed as Aspergillus terreus)
chain: B1 chain with D341H, D343N, S490C
modifications: SIGNAL (1)..(19)
B14: S272T + A298V + A369T: modified GLD: SEQ ID NO: 1 with substitutions S272T, A298V, A369T (protein, listed as Aspergillus terreus)
chain: B1 chain with S272T, A298V, D341H, A369T
modifications: SIGNAL (1)..(19)
B15: G426S + A578V: modified GLD: SEQ ID NO: 1 with substitutions G426S, A578V (protein, listed as Aspergillus terreus)
chain: B1 chain with D341H, G426S, A578V
modifications: SIGNAL (1)..(19)
B16: D343E + L562H: modified GLD: SEQ ID NO: 1 with substitutions D343E, L562H (protein, listed as Aspergillus terreus)
chain: B1 chain with D341H, D343E, L562H
modifications: SIGNAL (1)..(19)
B17: L250V + S340G + D399N: modified GLD: SEQ ID NO: 1 with substitutions L250V, S340G, D399N (protein, listed as Aspergillus terreus)
chain: B1 chain with L250V, S340G, D341H, D399N
modifications: SIGNAL (1)..(19)
B18: H341R + G499S: modified GLD: SEQ ID NO: 1 with substitutions H341R, G499S (protein, listed as Aspergillus terreus)
chain: B1 chain with D341R, G499S
modifications: SIGNAL (1)..(19)
B19: V338 + Q382H: modified GLD: SEQ ID NO: 1 with substitutions at V338 and Q382H (protein, listed as Aspergillus terreus)
chain: B1 chain with V338M, D341H, Q382H
modifications: SIGNAL (1)..(19)
B20: M342L + K354N: modified GLD: SEQ ID NO: 1 with substitutions M342L, K354N (protein, listed as Aspergillus terreus)
chain: B1 chain with D341H, M342L, K354N
modifications: SIGNAL (1)..(19)
B21: D343N: modified GLD: SEQ ID NO: 1 with substitution D343N (protein, listed as Aspergillus terreus)
chain: B1 chain with D341H, D343N
modifications: SIGNAL (1)..(19)
B22: V431M: modified GLD: SEQ ID NO: 1 with substitution V431M (protein, listed as Aspergillus terreus)
chain: B1 chain with D341H, V431M
modifications: SIGNAL (1)..(19)

Test: Relative enzymatic activity of GLD (DCIP/1-m-PMS, plate reader, yeast culture supernatant) with proflavin hydrochloride present
Type: biochemical
Conditions: site-specific mutants, inhibitor final concentration 1 mM
Method: (§1) The susceptibility defined in the present specification is evaluated in terms of a relative activity that is determined in a system wherein the inhibitor coexists or not. The relative activity is derived from a relative value (%) of an enzymatic activity (a sample value) obtained with the addition of the inhibitor in the determination of the enzymatic activity described in the present specification as compared with an enzymatic activity (a blank value) as “100%” obtained without the addition of the inhibitor in the same determination. Thus, the higher the relative activity is, the less the susceptibility to the inhibitor is (or the more the susceptibility to the inhibitor is reduced), vice versa.
(§2) The enzymatic activity is determined in the following manner in Examples 3 and 6 wherein a plate reader (Japan Molecular Device Corporation, SpectraMax Plus384) is used. Thus, culture supernatant that had been diluted in advance with an appropriate magnification is added to a 96-well microplate with an amount of 100 μl per well. A reagent for the determination of the enzymatic activity comprising phosphate buffer (pH 7.0), 1.0 M D-glucose, 3 mM DCIP, 3 mM 1-m-PMS and methanol with a volume ratio of 0.1:1:0.14:0.2:0.06 is added to the 96-well microplate with an amount of 100 μl per well, and a change in the absorbance of DCIP at 600 nm (ΔABS/min) is then determined. The enzymatic activity can be calculated by conversion in proportion to a change in the absorbance of an enzyme solution for which the enzymatic activity has already been known by the above-mentioned activity determination procedure using the spectrophotometer.
(§3) In the following examples, a value of the enzymatic activity determined by the spectrometer or plate reader using the above reagent composition is considered as a blank value. On the other hand, a sample value is determined using a methanol solution comprising the inhibitor such as 1,10-phenanthroline or proflavin hydrochloride at a final concentration of 1 mM instead of the methanol. Enzymatic activity (unit/mL)=(−ΔABS/16.3)×3.0/0.05×(Dilution ratio of enzyme) [Equation 1]

Molecule | Relative Activity [%] Proflavin hydrochloride [%]
B1 | 64.5
B2 | 75.8
B3 | 66.9
B4 | 49.9
B5 | 36.3
B6 | 25.2
B7 | 75.7
B8 | 67.5
B9 | 67.7
B10 | 54.9
B11 | 49.5

Test: Relative enzymatic activity of GLD (DCIP/1-m-PMS, plate reader, yeast culture supernatant) with 1,10-phenanthroline present
Type: biochemical
Conditions: random-mutation mutants, sample value with inhibitor at 1 mM / blank value, inhibitor not named in Table 1
Method: as §1, §2, §3
Into each well of a 96-well microplate (manufactured by Nunc, Inc.), a YPD medium containing 125 μL of 1.0% (w/v) yeast extract (manufactured by BD), 2.0% (w/v) tryptone (manufactured by BD), 2.0% (w/v) glucose (manufactured by Wako Pure Chemical Industries, Ltd.) was dispensed, and the transformant colonies obtained in Example 2 were inoculated thereinto one by one.
After shaking culture at 30° C. and 1,000 rpm for 24 hours, the culture mixture was centrifuged and the supernatant was collected.
According to the above-mentioned method for the determination of enzymatic activity, a blank value and a sample value were determined using a plate reader, and the relative activity (%) was obtained by dividing the sample value by the blank value.

Molecule | Relative Activity
B12 | 52.2%
B13 | 61.8% and 71.1%
B14 | 68.6%
B15 | 65.7%
B3 | 69.7%
B5 | 70.4%
B16 | 51.8%
B17 | 43.4%
B18 | 71.9%
B19 | 60.0%
B20 | 69.8%
B21 | 65.2%
B22 | 44.8%

Same assay, conditions: site-specific mutants, inhibitor final concentration 1 mM

Molecule | Relative Activity [%] 1,10-Phenanthroline [%]
B1 | 90.0
B2 | 95.1
B3 | 92.2
B4 | 82.0
B5 | 91.7
B6 | 88.4
B7 | 97.7
B8 | 97.1
B9 | 95.4
B10 | 84.2
B11 | 54.6
